From patent US20260265403A1 (TJ BIOPHARMA SHANGHAI, published 2026)

T1: Human CD24 (human, UniProt P25063 27-59, limits assumed)
T1 chain (looked up): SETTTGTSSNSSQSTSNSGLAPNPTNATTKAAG

T2: human CD24 on cells (human, UniProt P25063 27-59)
T2 construct: whole, on cells; One molecule for all cell lines; the cell line is named under assay or readout; also called cell surface CD24; cell-based CD24
T2 chain (looked up): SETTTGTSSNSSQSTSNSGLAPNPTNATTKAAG


Assays:
Human CD24 [1] = target: T1, Human CD24; experiment: SPR, second 1:1 binding column set
Human CD24 [2] = target: T1, Human CD24; experiment: SPR affinity ranking, 1:1 binding, analyte conc. 19.71 nM
Human CD24 [3] = target: T1, Human CD24; experiment: affinity ranking; antibody as ligand, Human CD24 as analyte
human CD24 on cells [4] = target: T2, human CD24 on cells; experiment: flow cytometry (GMFI), MCF-7 cells; EC50 table under the graphs
human CD24 on cells [5] = target: T2, human CD24 on cells; experiment: flow cytometry (GMFI), SKOV3 cells; EC50 table under the graphs [Cont'd) B]

Binder	Kd (Human CD24 [2]) [nM]	koff (Human CD24 [2]) [s⁻¹]	kon (Human CD24 [2]) [M⁻¹ s⁻¹]	Kd (Human CD24 [3]) [nM]	koff (Human CD24 [3]) [s⁻¹]	kon (Human CD24 [3]) [M⁻¹ s⁻¹]	EC50 (human CD24 on cells [4]) [µg/mL]	other results
Antibody No 15 (4451HM15), lead clone of 4451H (HC N35G, T59Y; LC K27A) (antibody, V domains shown) VH: QVQLVQSGAEVKKPGASVKVSCKASGYDFTGYHMGWVRQAPGQGLEWMGEINPITSDKYFNQKFKSRVTMTRDTSISTAYMELSRLRSDDTAVYYCARRDYGTSLDYWGQGTTVTVSS VL: DIQLTQSPSFLSASVGDRVTITCRASASISKYLAWYQQKPGKAPKLLIYAGSTLHSGIPSRFRGSGSGTEFTLTISSLQPEDFATYYCQQHNEYPITFGQGTKLEIK	7.05	0.00755	1.07e+06					Kd (Human CD24 [1]): 3.98 nM; koff (Human CD24 [1]): 0.00509 s⁻¹; kon (Human CD24 [1]): 1.28e+06 M⁻¹ s⁻¹
Antibody No 8, lead clone of 4451H (HC T59Y; LC K27A, T97I) (antibody, V domains shown) VH: QVQLVQSGAEVKKPGASVKVSCKASGYDFTGYHMNWVRQAPGQGLEWMGEINPITSDKYFNQKFKSRVTMTRDTSISTAYMELSRLRSDDTAVYYCARRDYGTSLDYWGQGTTVTVSS VL: DIQLTQSPSFLSASVGDRVTITCRASASISKYLAWYQQKPGKAPKLLIYAGSTLHSGIPSRFRGSGSGTEFTLTISSLQPEDFATYYCQQHNEYPIIFGQGTKLEIK	15.8	0.0196	1.24e+06					
VH2 + VL2 (humanized 4451) (antibody, V domains shown, IgG expressed in HEK293) VH: QVQLVQSGAEVKKPGASVKVSCKASGYDFTGYHMNWVRQAPGQGLEWIGEINPITSDKTFNQKFKSRVTMTVDTSISTAYMELSRLRSDDTAVYYCARRDYGTSLDYWGQGTTVTVSS VL: DIQLTQSPSFLSASVGDRVTITCRASKSISKYLAWYQQKPGKAPRLLIYAGSTLHSGVPSRFRGSGSGTEFTLTISSLQPEDFATYYCQQHNEYPITFGQGTKLEIK				22	0.0234	1.06e+06	0.75	
Antibody No 13, lead clone of 4451H (HC T59Y; LC L33G) (antibody, V domains shown) VH: QVQLVQSGAEVKKPGASVKVSCKASGYDFTGYHMNWVRQAPGQGLEWMGEINPITSDKYFNQKFKSRVTMTRDTSISTAYMELSRLRSDDTAVYYCARRDYGTSLDYWGQGTTVTVSS VL: DIQLTQSPSFLSASVGDRVTITCRASKSISKYGAWYQQKPGKAPKLLIYAGSTLHSGIPSRFRGSGSGTEFTLTISSLQPEDFATYYCQQHNEYPITFGQGTKLEIK	9.68	0.0237	2.45e+06					
VH4 + VL4 (humanized 4451) (antibody, V domains shown, IgG expressed in HEK293) VH: QVQLVQSGAEVKKPGASVKVSCKASGYDFTGYHMNWVKQAPGQGLEWIGEINPITSDKTFNQKFKSRATMTVDRSISTAYMELSRLRSDDTAVYYCARRDYGTSLDYWGQGTTVTVSS VL: DIQLTQSPSFLSASVGDRVTIYCRASKSISKYLAWYQQKPGKAPRLLIYAGSTLHSGIPSRFRGSGSGTEFTLTISSLQPEDFATYYCQQHNEYPITFGQGTKLEIK				7.94	0.0122	1.53e+06	0.39	
Antibody No 12, lead clone of 4451H (HC T59Y; LC S30K) (antibody, V domains shown) VH: QVQLVQSGAEVKKPGASVKVSCKASGYDFTGYHMNWVRQAPGQGLEWMGEINPITSDKYFNQKFKSRVTMTRDTSISTAYMELSRLRSDDTAVYYCARRDYGTSLDYWGQGTTVTVSS VL: DIQLTQSPSFLSASVGDRVTITCRASKSIKKYLAWYQQKPGKAPKLLIYAGSTLHSGIPSRFRGSGSGTEFTLTISSLQPEDFATYYCQQHNEYPITFGQGTKLEIK	11.1	0.168	1.52e+07					
Antibody No 10, lead clone of 4451H (HC T59Y; LC L33G, T97I) (antibody, V domains shown) VH: QVQLVQSGAEVKKPGASVKVSCKASGYDFTGYHMNWVRQAPGQGLEWMGEINPITSDKYFNQKFKSRVTMTRDTSISTAYMELSRLRSDDTAVYYCARRDYGTSLDYWGQGTTVTVSS VL: DIQLTQSPSFLSASVGDRVTITCRASKSISKYGAWYQQKPGKAPKLLIYAGSTLHSGIPSRFRGSGSGTEFTLTISSLQPEDFATYYCQQHNEYPIIFGQGTKLEIK	8.7	0.0175	2.01e+06					
Antibody No 18, lead clone of 4451H (HC N35G, T59Y; LC T97I) (antibody, V domains shown) VH: QVQLVQSGAEVKKPGASVKVSCKASGYDFTGYHMGWVRQAPGQGLEWMGEINPITSDKYFNQKFKSRVTMTRDTSISTAYMELSRLRSDDTAVYYCARRDYGTSLDYWGQGTTVTVSS VL: DIQLTQSPSFLSASVGDRVTITCRASKSISKYLAWYQQKPGKAPKLLIYAGSTLHSGIPSRFRGSGSGTEFTLTISSLQPEDFATYYCQQHNEYPIIFGQGTKLEIK	8.83	0.015	1.7e+06					
VH + VL (4451 parental variable regions, Table 7) (antibody, V domains shown) VH: EVQLQQSGPELVKPGASVKISCKASGYDFTGYHMNWVKQSPEKSLEWIGEINPITSDKTFNQKFKSKATLTVDRSSSTAYMYLKSLTSEDSAVYYCARRDYGTSLDYWGQGTTLTVSS VL: DVQITQSPSYLAASPGETITIYCRASKSISKYLAWYQEKPEKTNRLLIYAGSTLHSGIPSRFRGSGSGKDFTLTVSGLEPEDFAMYYCQQHNEYPITFGAGTKLELK				3.23	0.00937	2.9e+06	0.4	EC50 (human CD24 on cells [5]): 0.43 µg/mL
